Type in all cases: cell-based
In assay [1] the test system is PDAC cell lines. Put plainly: Rescue of IpY.20 effect on viability by pretreatment with inhibitors. How it is done:
When the less sensitive PDAC lines were treated with IpY.20, pRIPK1 expression, a marker of necroptosis, increased (FIG. 3A). To determine if ROS-dependent induction of pRIPK1 and necroptosis was responsible for IpY.20's effect in PDAC cell lines, cells lines (A-D) were treated with N-acetyl-1-cysteine (5 mM) a ROS inhibitor, Necrostatin-1 (10 μM) which prevents RIPK1 phosphorylation and Caspase-3/7 Inhibitor, for 24 h, followed by IpY.20 for the next 24 h. N=4 *p<0.05.
(§1) When these lines were pre-treated with NAC, Nec-1, or Caspase 3/7 inhibitor followed by IpY.20 treatment, differential results were observed. N=4 *p<0.05 (FIGS. 4A-4D). NAC treatment of BxPC3 cells reduced ROS levels (FIG. 4B), but these cells were rescued by caspase treatment (FIG. 4C). […] Percent viability relative to control plotted in all cases. L3.6 (FIG. 4E), PL45 (FIG. 4F) and Panel (FIG. 4G) were rescued by NEC-1, NAC and caspase inhibition to differing extents. Biomarkers dictating response were determined.

Assay [2] concerns PDAC cell lines. The assay is described as follows: ROS-Glo assay in PDAC cells. How it is done: (§2) FIGS. 2A-2F. FIGS. 2A and 2B are Western Blots, illustrating results from assays performed with treatment naive cells to analyze the expression levels of p27. Cells were harvested with RIPA buffer supplemented with protease inhibitors. The MCF7-ALT Dox inducible cell line was used as a control. […] Cells were treated with increasing concentrations of IpY.20 for 24h. Viability was measured using the Cell Titer Glo assay (Promega). Viability was calculated relative to untreated control cells. N=4 *p<0.05. […] FIGS. 2D, 2E and 2F are graphs illustrating that IpY.20 induces ROS. Cells were treated with IpY.20 for 24 h. ROS levels were measured using ROS-Glo assay (Promega). % ROS was calculated relative to untreated control cells. N=4 *p<0.05. The MCF7-ALT inducible cell line induced ROS.

Assay [3] has as its system pRIPK1. The assay is described as follows: pRIPK1 expression (marker of necroptosis).
Assay [4] deals with Pancreatic Ductal Adenocarcinoma (PDAC) cell lines. The assay is described as follows: Cell viability (Cell Titer Glo) in PDAC cell lines. The protocol:
FIGS. 1A-1D. FIGS. 1A and 1B are respectively a graph and an image showing that PDAC cells are resistant to palbociclib-treatment. Cells were treated with increasing concentrations of palbociclib (PD) for 24 h before analysis for viability (Cell Titer Glo, Promega). N=4 *p<0.05. Control=untreated cells. Viability plotted relative to growth in the presence of control. FIGS. 1C and 1D show PL5 cells treated with increasing concentrations of IpY.20 and E′NP before analysis of Cell Titer Glo analysis.
as §2, with “Cells were treated with IpY.20 for 24 h.” left out, “N=4 *p<0.05. The MCF7-ALT inducible cell line induced ROS.” left out
To test whether PDAC cells might be resistant to CDK4/6 inhibition due to activation of CDK2, experiments were performed. […] Some non-specific liposome toxicity was detected at the high concentrations. […]
Background: In ATP-based viability assays light output follows the ATP content of the culture.

The test system of assay [5] is CDK4i-resistant and treatment naive breast cancer cells. The assay is described as follows: Arrest of breast cancer cells.
The test system of assay [6] is BxPC3. Put plainly: Caspase-Glo 3/7 Assay for apoptosis. The settings on record: treated 24 h.
Source text: as §1

Where [7] appears, read: L3.6, PL45 and Panel, to differing extents.
Setting [8] is: PDAC lines that increased pRIPK1, pretreatment 24 h, then IpY.20 24 h.

The values below come from patent US20260234204A1, “BRK PEPTIDES AND METHODS OF USE” (Concarlo Therapeutics, Inc., priority 2023, published 2026).

With `CN1C(=O)C(Cc2c[nH]c3ccccc23)NC1=S` (stereo not drawn) [Nec1, Necrostatin-1], the “rescue from IpY.20 effect” value in assay [1] (setting [7]) and in assay [1] (setting [8]) was “rescued” in each case.

As for `CC(=O)N[C@@H](CS)C(=O)O` [NAC, N-acetyl-1-cysteine], in assay [2] (BxPC3 cells, pretreatment followed by IpY.20), the ROS levels entry was “reduced”. Besides, the “rescue from IpY.20 effect” value in assay [1] (setting [7]) and in assay [1] (setting [8]) was “rescued” in each case.

B1: IpY.20: smaller and more stable variant of ALT, SEQ ID NO: 6; tested as liposomal IpY.20 (peptide)
chain: MVSRDQAHLGPKYVGLWDFKSRTDEELSFRAGDVFHVARKEEQWWWATLLDEAGGAVAQGYVPHNYLAERETVESEPAGHAGSAALQDLAA
modifications: liposomal formulation
On to B1, for which the ROS levels entry in assay [2] (treated 24 h, relative to untreated control cells) is “induces ROS”. The pRIPK1 expression entry in assay [3] (Super sensitive PDAC lines) is listed as “did not exhibit induction”; in assay [3] (less sensitive PDAC lines), “increased”. Moreover, in assay [4] (PL5, Panc1, L3.6 and BXPC3), the sensitivity to treatment result is recorded as “super sensitivity”. Moreover, the “viability of CDK4i resistant pancreatic cell lines” value in assay [4] (increasing concentrations for 24h, relative to untreated control) was “reduces viability”. For the same molecule, in assay [5], the “ability to arrest cells” value was “behaved similarly to IpY.1”. The caspase expression result in assay [6] was “strongly induced”.
